# B1: transformed α2M (α2M*) (natural protein, human, UniProt P01023 24-1474, looked up)
# chain: SVSGKPQYMVLVPSLLHTETTEKGCVLLSYLNETVTVSASLESVRGNRSLFTDLEAENDVLHCVAFAVPKSSSNEEVMFLTVQVKGPTQEFKKRTTVMVKNEDSLVFVQTDKSIYKPGQTVKFRVVSMDENFHPLNELIPLVYIQDPKGNRIAQWQSFQLEGGLKQFSFPLSSEPFQGSYKVVVQKKSGGRTEHPFTVEEFVLPKFEVQVTVPKIITILEEEMNVSVCGLYTYGKPVPGHVTVSICRKYSDASDCHGEDSQAFCEKFSGQLNSHGCFYQQVKTKVFQLKRKEYEMKLHTEAQIQEEGTVVELTGRQSSEITRTITKLSFVKVDSHFRQGIPFFGQVRLVDGKGVPIPNKVIFIRGNEANYYSNATTDEHGLVQFSINTTNVMGTSLTVRVNYKDRSPCYGYQWVSEEHEEAHHTAYLVFSPSKSFVHLEPMSHELPCGHTQTVQAHYILNGGTLLGLKKLSFYYLIMAKGGIVRTGTHGLLVKQEDMKGHFSISIPVKSDIAPVARLLIYAVLPTGDVIGDSAKYDVENCLANKVDLSFSPSQSLPASHAHLRVTAAPQSVCALRAVDQSVLLMKPDAELSASSVYNLLPEKDLTGFPGPLNDQDNEDCINRHNVYINGITYTPVSSTNEKDMYSFLEDMGLKAFTNSKIRKPKMCPQLQQYEMHGPEGLRVGFYESDVMGRGHARLVHVEEPHTETVRKYFPETWIWDLVVVNSAGVAEVGVTVPDTITEWKAGAFCLSEDAGLGISSTASLRAFQPFFVELTMPYSVIRGEAFTLKATVLNYLPKCIRVSVQLEASPAFLAVPVEKEQAPHCICANGRQTVSWAVTPKSLGNVNFTVSAEALESQELCGTEVPSVPEHGRKDTVIKPLLVEPEGLEKETTFNSLLCPSGGEVSEELSLKLPPNVVEESARASVSVLGDILGSAMQNTQNLLQMPYGCGEQNMVLFAPNIYVLDYLNETQQLTPEIKSKAIGYLNTGYQRQLNYKHYDGSYSTFGERYGRNQGNTWLTAFVLKTFAQARAYIFIDEAHITQALIWLSQRQKDNGCFRSSGSLLNNAIKGGVEDEVTLSAYITIALLEIPLTVTHPVVRNALFCLESAWKTAQEGDHGSHVYTKALLAYAFALAGNQDKRKEVLKSLNEEAVKKDNSVHWERPQKPKAPVGHFYEPQAPSAEVEMTSYVLLAYLTAQPAPTSEDLTSATNIVKWITKQQNAQGGFSSTQDTVVALHALSKYGAATFTRTGKAAQVTIQSSGTFSSKFQVDNNNRLLLQQVSLPELPGEYSMKVTGEGCVYLQTSLKYNILPEKEEFPFALGVQTLPQTCDEPKAHTSFQISLSVSYTGSRSASNMAIVDVKMVSGFIPLKPTVKMLERSNHVSRTEVSSNHVLIYLDKVSNQTLSLFFTVLQDVPVRDLKPAIVKVYDYYETDEFAIAEYNAPCSKDLGNA
# modifications: thioester bond reacted (NH4Cl)
# B2: hypochlorite-modified α2M (natural protein, human, UniProt P01023 24-1474, looked up)
# chain: B1 chain
# modifications: hypochlorite (NaOCl)-modified; residues not stated
# B3: pregnancy zone protein (PZP) (natural protein, human, UniProt P20742 26-1482, looked up)
# chain: TEPQYMVLVPSLLHTEAPKKGCVLLSHLNETVTVSASLESGRENRSLFTDLVAEKDLFHCVSFTLPRISASSEVAFLSIQIKGPTQDFRKRNTVLVLNTQSLVFVQTDKPMYKPGQTVRFRVVSVDENFRPRNELIPLIYLENPRRNRIAQWQSLKLEAGINQLSFPLSSEPIQGSYRVVVQTESGGRIQHPFTVEEFVLPKFEVKVQVPKIISIMDEKVNITVCGEYTYGKPVPGLATVSLCRKLSRVLNCDKQEVCEEFSQQLNSNGCITQQVHTKMLQITNTGFEMKLRVEARIREEGTDLEVTANRISEITNIVSKLKFVKVDSHFRQGIPFFAQVLLVDGKGVPIPNKLFFISVNDANYYSNATTNEQGLAQFSINTTSISVNKLFVRVFTVHPNLCFHYSWVAEDHQGAQHTANRVFSLSGSYIHLEPVAGTLPCGHTETITAHYTLNRQAMGELSELSFHYLIMAKGVIVRSGTHTLPVESGDMKGSFALSFPVESDVAPIARMFIFAILPDGEVVGDSEKFEIENCLANKVDLSFSPAQSPPASHAHLQVAAAPQSLCALRAVDQSVLLMKPEAELSVSSVYNLLTVKDLTNFPDNVDQQEEEQGHCPRPFFIHNGAIYVPLSSNEADIYSFLKGMGLKVFTNSKIRKPKSCSVIPSVSAGAVGQGYYGAGLGVVERPYVPQLGTYNVIPLNNEQSSGPVPETVRSYFPETWIWELVAVNSSGVAEVGVTVPDTITEWKAGAFCLSEDAGLGISSTASLRAFQPFFVELTMPYSVIRGEVFTLKATVLNYLPKCIRVSVQLKASPAFLASQNTKGEESYCICGNERQTLSWTVTPKTLGNVNFSVSAEAMQSLELCGNEVVEVPEIKRKDTVIKTLLVEAEGIEQEKTFSSMTCASGANVSEQLSLKLPSNVVKESARASFSVLGDILGSAMQNIQNLLQMPYGCGEQNMVLFAPNIYVLNYLNETQQLTQEIKAKAVGYLITGYQRQLNYKHQDGSYSTFGERYGRNQGNTWLTAFVLKTFAQARSYIFIDEAHITQSLTWLSQMQKDNGCFRSSGSLLNNAIKGGVEDEATLSAYVTIALLEIPLPVTNPIVRNALFCLESAWNVAKEGTHGSHVYTKALLAYAFSLLGKQNQNREILNSLDKEAVKEDNLVHWERPQRPKAPVGHLYQTQAPSAEVEMTSYVLLAYLTAQPAPTSGDLTSATNIVKWIMKQQNAQGGFSSTQDTVVALHALSRYGAATFTRTEKTAQVTVQDSQTFSTNFQVDNNNLLLLQQISLPELPGEYVITVTGERCVYLQTSMKYNILPEKEDSPFALKVQTVPQTCDGHKAHTSFQISLTISYTGNRPASNMVIVDVKMVSGFIPLKPTVKMLERSSSVSRTEVSNNHVLIYVEQVTNQTLSFSFMVLQDIPVGDLKPAIVKVYDYYETDESVVAEYIAPCSTDTEHGNV
# Tests used:
# native gel or EMSA = molecular target: the molecule itself; assay: native gel or EMSA
# [1] = molecular target: Hilyte Fluor 488-labeled Aβ1-42 (UniProt P05067 672-713, Hilyte Fluor 488 label (position not given)); assay: native gel or EMSA
# Chain of Hilyte Fluor 488-labeled Aβ1-42 (P05067 672-713): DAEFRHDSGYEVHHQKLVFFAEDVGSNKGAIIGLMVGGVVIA
# biotinylated Aβ1-42 = biotinylated Aβ1-42 (UniProt P05067 672-713, biotin (position not given)); assay: pull-down
# Chain of biotinylated Aβ1-42 (P05067 672-713): as above
Binder,stoichiometry N (native gel or EMSA),binding result [1],binding result (biotinylated Aβ1-42)
B1,4,–,–
B2,2,–,–
B3,2,binds,binds
